The target of one experiment is T1, CD80Ig (UniProt P33681 35-242).
T1 construct: extracellular domain; also called soluble CD80Ig; B7-1 Ig
In words: SPR, CD80Ig immobilized, monomeric analytes. How it is done: (§1) Association and disassociation analyses were performed using BIA evaluation 2.1 Software (Pharmacia). Association rate constants $kon$ were calculated in two ways, assuming both homogenous single-site interactions and parallel two-site interactions. For single-site interactions, $kon$ values were calculated according to the equation $R_t=Req(1-\exp^{-ks(t-t_0)})$, where R_t is a response at a given time, t; $Req$ is the steady-state response; t_0 is the time at the start of the injection; and $k_s=dR/dt=kon \cdot Ckoff$, and where C is a concentration of analyte, calculated in terms of monomeric binding sites. For two-site interactions $kon$ values were calculated according to the equation $R_t=Req1(1-\exp^{-ks1(t-t_0)})+Req2(1-[…])$. For each model, the values of $kon$ were determined from the calculated slope (to about 70% maximal association) of plots of k_s versus C.

The target in a further experiment is T2, CD86Ig (UniProt P42081 24-247).
T2 construct: extracellular domain; also called soluble CD86Ig; B7-2 Ig
Kind of experiment: SPR, CD86Ig immobilized, monomeric analytes. How it is done: as §1

Results on 1 molecule are retold here after US7304033 (Bristol-Myers Squibb, dated 2007).

T2 sequence (P42081 24-247): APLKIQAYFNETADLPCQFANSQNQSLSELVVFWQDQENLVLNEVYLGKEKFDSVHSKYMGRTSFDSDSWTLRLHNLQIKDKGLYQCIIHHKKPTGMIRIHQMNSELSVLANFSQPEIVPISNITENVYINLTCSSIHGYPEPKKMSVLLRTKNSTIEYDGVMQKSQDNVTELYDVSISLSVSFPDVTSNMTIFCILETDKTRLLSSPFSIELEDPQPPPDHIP
T1 sequence (P33681 whole entry, the tested form may be a part): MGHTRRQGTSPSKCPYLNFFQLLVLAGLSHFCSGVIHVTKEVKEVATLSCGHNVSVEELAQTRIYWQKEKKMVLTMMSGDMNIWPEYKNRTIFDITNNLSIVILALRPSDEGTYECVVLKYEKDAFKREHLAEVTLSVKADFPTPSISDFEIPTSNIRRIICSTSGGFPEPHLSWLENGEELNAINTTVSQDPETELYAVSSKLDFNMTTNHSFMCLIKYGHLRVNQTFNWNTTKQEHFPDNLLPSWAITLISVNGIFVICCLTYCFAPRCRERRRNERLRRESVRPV

B1: L104EA29YXC120S (receptor)
chain: MHVAQPAVVLASSRGIASFVCEYASPGKYTEVRVTVLRQADSQVTEVCAATYMMGNELTFLDDSICTGTSSGNQVNLTIQGLRAMDTGLYICKVELMYPPPYYEGIGNGTQIYVIDPEPSPDSD
notes: Monomeric; prepared in an identical manner to CTLA4XC120S; also called single chain L104EA29Y extracellular domain
Consider B1, for which, in the experiment with CD80Ig, the “fold higher affinity than CTLA4X120S” value was around 2 fold and the “fold slower rate of dissociation than CTLA4X120S” value is around 3 fold. Moreover, in the experiment with CD86Ig, the “fold higher affinity than CTLA4X120S” value was around 2 fold and the “fold slower rate of dissociation than CTLA4X120S” value was around 3 fold.
